Data from patent publication US4496689A, “Covalently attached complex of alpha-1-proteinase inhibitor with a water soluble polymer” (Miles Laboratories, Inc., priority 1983, dated 1985).

Experiments:
[1] = test system: Antiserum (rabbit anti-human) to alpha-l-proteinase inhibitor; test: Precipitin reaction with rabbit antiserum to the unmodified protein; type: binding; conditions: for Precipitin Reaction: rabbit antiserum dil. 1:2; for Amount of protein needed to obtain a strong precipitin reaction: rabbit antiserum to the unmodified protein
Protocol: Antiserum (rabbit anti-human) to alpha-l-proteinase inhibitor was obtained from Miles Laboratories (Elkhart, IN).
For unmodified alpha-1-proteinase inhibitor, only 0.092 μg of protein was sufficient to obtain a strong precipitin reaction. For the 0.117 moles dextran/mole alpha-1-proteinase inhibitor conjugate, 14.5 μg of alpha-1-proteinase inhibitor was needed to elicit a similar response--a very significant increase of antigen concentration. For the 0.585 moles dextran/mole alpha-1-proteinase inhibitor conjugate increase of antigen concentration up to 29.0 μg was not sufficient to obtain a strong precipitin reaction with the antiserum.

[2] = molecular target: T1, Porcine pancreatic elastase type III (Sus scrofa, UniProt P00772); test: Elastase inhibitory capacity (EIC) assay with chromogenic substrate SA3 pNA; type: biochemical; conditions: for % EIC Recovered: recovery across covalent coupling
T1 construct: purchased Sigma Chemicals Co. (St. Louis, MO)
T1 sequence (P00772 27-266): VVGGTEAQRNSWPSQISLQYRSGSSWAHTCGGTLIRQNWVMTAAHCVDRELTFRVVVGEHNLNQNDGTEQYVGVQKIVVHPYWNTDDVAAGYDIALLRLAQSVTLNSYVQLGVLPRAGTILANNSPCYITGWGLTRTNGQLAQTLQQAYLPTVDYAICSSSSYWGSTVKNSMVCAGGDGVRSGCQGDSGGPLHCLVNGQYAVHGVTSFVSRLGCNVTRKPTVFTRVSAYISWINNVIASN
Text: Porcine pancreatic elastase type III and chromogenic substrate N-succinyl-L-anlanyl-L-alanyl-L-alanyl-p-nitroanilide (SA3 pNA) were obtained from Sigma Chemicals Co. (St. Louis, MO). Hydrolysis of the chromogenic substrate by the elastase liberates p-nitroaniline which gives a yellow color whose absorbance is measurable spectrophotometrically (Model 1084 UV Spectrophotometer, Gilford Instruments, Oberlin, OH) at 405 nm.
Comparisons of the linear changes of absorbance with time both in the presence and in the absence of sample alpha-l-proteinase inhibitor and of sample alpha-l-proteinase inhibitor-dextran covalent complex were made. The amount of inhibitor was then calculated based on the known molecular weights of the elastase and alpha-l-proteinase inhibitor, on the known 1:1 stoichrometry, and on the known amount of elastase used. A pool of normal human plasma (>1000 donors) was used as the standard and assigned a value of 1 μ/ml of α1 PI.

elastase [3] = molecular target: T2, elastase (Sus scrofa, UniProt P00772); test: pH stability (pH 3.0), recovery of EIC; type: physicochemical, porcine; conditions: pH 3.0 for 24 hours at +5° C.; for Recovery of EIC as % of Control After Adjustment to pH 7.4, Incubation Time 24 hrs. (5° C.): back to pH 7.40, further 24 hrs. at 5° C.; for Recovery of EIC as % of Control After Adjustment to pH 7.4, Immediate: then back to pH 7.40, assayed immediately
T2 construct: purchased Sigma Chemicals Co. (St. Louis, MO)
T2 sequence (P00772 27-266): as above
Protocol: In order to investigate the pH stability of these preparations, experimental samples were adjusted to pH 3.0 with controls at pH 7.40 and incubated for 24 hours at +5° C. Following this, pH was adjusted back up to 7.40 for the experimental samples and EIC assays carried out immediately. Samples were further incubated for 24 hours at +5° C. and reassayed.

[4] = molecular target: T1, Porcine pancreatic elastase type III; test: Association rate constant (kassoc) between enzyme and inhibitor; type: biochemical; conditions: for t0.5 (half life of the enzyme-inhibitor association reaction) / kassoc, rate constant for the association between the enzyme and the inhibitor: equimolar enzyme and inhibitor, 3.37×10^-7, 37° C., pH 7.4; for kassoc, rate constant for the association between the enzyme and the inhibitor: calculated by equation (4); for Initial Reac. Rate: 37° C.
Protocol: Association constants (kassoc) between the enzyme (E) and the inhibitor (I) were determined as follows: 25 μl each of equimolar amounts of the enzyme and the inhibitor were incubated at 37° C. with 1950 μl of buffer (0.05M TRIS, 0.15M NaCl, pH 7.4) (TRIS® is tris(hydroxymethyl)amino methane, supplied by Sigma, St. Louis, Mo.) to obtain a resultant concentration of 3.37×10^-7. At various times, a 200 μl aliquot of the enzyme-inhibitor solution was added to 780 μl buffer and 20 μl substrate (SA3 pNA) (60 mM) and the hydrolysis rate followed in the temperature controlled (37° C.) cuvette with a recorder (Model 6051, Gilford Instruments, Oberlin, Ohio) attachment. During hydrolysis no further enzyme-inhibitor association was assumed (5 fold dilution compared to preincubation) and the initial reaction rate (v) was indicative of the free enzyme (E) present at the end of the respective preincubation times. Enzyme inhibitor association is represented as: [formula] for kdissoc .perspectiveto.0 and equimolar concentrations of E and I we get
With initial conditions t=0, E=Eo (all free enzyme) equation (2) integrates to
By defining half life of the reaction t0.5 to be at E=0.5Eo we get
The initial reaction rate (Δ absorbance/5 minutes) depicts the hydrolysis rate of the substrate by the free enzyme present following the respective preincubation time. Initial reaction rate, in the absence of the inhibitor, was determined and the time required for this rate to decrease to half of its original value (t0.5) was calculated. Equation (4) was subsequently used to calculate kassoc for each of the 3 cases.

elastase [5] = molecular target: T2, elastase; test: Heat stability at 60° C., EIC readout; type: physicochemical, porcine; conditions: within 60 minutes (FIG. 1)
Protocol: Alpha-1-proteinase inhibitor and its dextran conjugates, with and without added beef liver catalase as antioxidant, were heated in closed tubes at 60±0.2° C. The tubes were preheated and due to large mass difference the samples reached the bath temperature in less than 60 seconds. At designated time intervals samples were withdrawn and instantaneously cooled down (by ice bath) to room temperature prior to assay.
A significant difference here is observed between the native protein and its conjugates.

elastase [6] = molecular target: T2, elastase; test: Oxidative inactivation by H2O2, recovery of EIC; type: physicochemical, porcine; conditions: 0-28 mM H2O2, 37° C., 1 hour, pH 7.4 (FIG. 2)
Protocol: Hydrogen peroxide (30% solution, Sigma Chemicals) was used as the oxidation agent to investigate the effect of 0-28 mM H2 O2 on the recovery of elastase inhibitory capacity (EIC) following incubation at 37° C. for 1 hour.
FIG. 2 (oxidation at pH 7.4) depicts the effects of various concentrations of H2 O2 on the samples. […] It is to be understood that any antioxidant enzyme may be used, e.g. catalase or an equivalent enzyme such as superoxide dismutase.

porcine elastase = conditions: each at 1.4×10^-8 M; Beatty et al, J. Biol. Chem., 255, 3931 (1980); cited from earlier work
[7] = bovine liver catalase modified with methoxypolyethylene glycol; Abuchowski et al; cited from earlier work

For “4: alpha-1-proteinase inhibitor-dextran complex, dextran mol. wt. 10,300, 100 mg inhibitor per gram of dextran, ratio 0.117 [Example 4]”, the “Precipitin Reaction” value ([1]; antigen conc. 14.5 μg) was “Strong”, the “Amount of protein needed to obtain a strong precipitin reaction” value (“Amount of protein needed” for short) [1] was 14.5 µg and the “% EIC Recovered” value [2] was 28.8%. The “Recovery of EIC as % of Control After Adjustment to pH 7.4, Incubation Time 24 hrs. (5° C.)” value (elastase [3]) was 81%, the “Recovery of EIC as % of Control After Adjustment to pH 7.4, Immediate” value (elastase [3]) was 68% and the “t0.5 (half life of the enzyme-inhibitor association reaction)” value [4] was 21.49 s. The “kassoc, rate constant for the association between the enzyme and the inhibitor” value [4] was 141000 M⁻¹ s⁻¹, the “Initial Reac. Rate” value ([4]; preincubation time 20 secs.) was 0.450 Δ absorbance/5 minutes and the “Initial Reac. Rate” value ([4]; preincubation time 45 secs.) was 0.285 Δ absorbance/5 minutes. For the same molecule, the “Initial Reac. Rate” value ([4]; preincubation time 75 secs.) was 0.195 Δ absorbance/5 minutes and the “Initial Reac. Rate” value ([4]; preincubation time 120 secs.) was 0.130 Δ absorbance/5 minutes.

With “5: alpha-1-proteinase inhibitor-dextran complex, dextran mol. wt. 10,300, 20 mg inhibitor per gram of dextran, ratio 0.585 [Example 5]” the “Precipitin Reaction” value ([1]; antigen conc. 1.95 μg) was “Weak”, the “Precipitin Reaction” value ([1]; antigen conc. 29.0 μg) was “Weak” and the “Amount of protein needed” value [1] was greater than 29.0 µg. The “% EIC Recovered” value [2] was 18.4%, the “Recovery of EIC as % of Control After Adjustment to pH 7.4, Immediate” value (elastase [3]) was 55% and the “t0.5 (half life of the enzyme-inhibitor association reaction)” value [4] was 34.67 s. For the same molecule, the “kassoc, rate constant for the association between the enzyme and the inhibitor” value [4] was 85600 M⁻¹ s⁻¹, the “Initial Reac. Rate” value ([4]; preincubation time 25 secs.) was 0.495 Δ absorbance/5 minutes and the “Initial Reac. Rate” value ([4]; preincubation time 65 secs.) was 0.285 Δ absorbance/5 minutes. For the same molecule, the “Initial Reac. Rate” value ([4]; preincubation time 100 secs.) was 0.205 Δ absorbance/5 minutes and the “Initial Reac. Rate” value ([4]; preincubation time 145 secs.) was 0.135 Δ absorbance/5 minutes.

In the case of “Native α1 PI: human plasma glycoprotein alpha-1-proteinase inhibitor, molecular weight 53,000, purified from Cohn Fraction IV-1”, the “Precipitin Reaction” value ([1]; antigen conc. 0.092 μg) is reported as “Strong”, the “Amount of protein needed” value [1] is reported as 0.092 µg and the “Elastase inhibitory capacity/mg total protein” value ([2]; purified from Cohn Fraction IV-1) is reported as 1.5. For the same molecule, the “Loss of initial activity (EIC) on heating” value (elastase [5]) was greater than 90%, the “Effect of H2O2 oxidation on EIC” value (elastase [6]) was “significant progressive loss of EIC” and the “Recovery of EIC as % of Control After Adjustment to pH 7.4, Incubation Time 24 hrs. (5° C.)” value (elastase [3]) was 66%. For the same molecule, the kassoc (porcine elastase) was 1×10^5 M^-1 sec.^-1, the “kassoc, rate constant for the association between the enzyme and the inhibitor” value [4] was 185000 M⁻¹ s⁻¹ and the “kassoc, rate constant for the association between the enzyme and the inhibitor” value ([4]; listed as native protein) was 185000 M⁻¹ s⁻¹. The “Initial Reac. Rate” value ([4]; preincubation time 15 secs.) was 0.460 Δ absorbance/5 minutes, the “Initial Reac. Rate” value ([4]; preincubation time 30 secs.) was 0.310 Δ absorbance/5 minutes and the “Initial Reac. Rate” value ([4]; preincubation time 60 secs.) was 0.173 Δ absorbance/5 minutes. The “Initial Reac. Rate” value ([4]; preincubation time 65 secs.) was 0.170 Δ absorbance/5 minutes and the “Initial Reac. Rate” value ([4]; preincubation time 90 secs.) was 0.128 Δ absorbance/5 minutes.

B1: PEG-1900-catalase: bovine liver catalase covalently modified with methoxypolyethylene glycol of 1900 daltons using cyanuric chloride (Abuchowski et al) (conjugate, UniProt P00432 2-527, looked up)
Catalase: ADNRDPASDQMKHWKEQRAAQKPDVLTTGGGNPVGDKLNSLTVGPRGPLLVQDVVFTDEMAHFDRERIPERVVHAKGAGAFGYFEVTHDITRYSKAKVFEHIGKRTPIAVRFSTVAGESGSADTVRDPRGFAVKFYTEDGNWDLVGNNTPIFFIRDALLFPSFIHSQKRNPQTHLKDPDMVWDFWSLRPESLHQVSFLFSDRGIPDGHRHMNGYGSHTFKLVNANGEAVYCKFHYKTDQGIKNLSVEDAARLAHEDPDYGLRDLFNAIATGNYPSWTLYIQVMTFSEAEIFPFNPFDLTKVWPHGDYPLIPVGKLVLNRNPVNYFAEVEQLAFDPSNMPPGIEPSPDKMLQGRLFAYPDTHRHRLGPNYLQIPVNCPYRARVANYQRDGPMCMMDNQGGAPNYYPNSFSAPEHQPSALEHRTHFSGDVQRFNSANDDNVTQVRTFYLKVLNEEQRKRLCENIAGHLKDAQLFIQKKAVKNFSDVHPEYGSRIQALLDKYNEEKPKNAVHTYVQHGSHLSAREKANL
modifications: mPEG 1900
In the case of B1, the Retained enzymatic activity [7] is listed as 93%.

B2: PEG-5000-catalase: bovine liver catalase covalently modified with methoxypolyethylene glycol PEG-5000 using cyanuric chloride (Abuchowski et al) (conjugate, UniProt P00432 2-527, looked up)
Catalase: B1 Catalase
modifications: mPEG 5000
For B2, the Retained enzymatic activity [7] is listed as 95%.
